Experimental findings from patent EP4588939A1 (Universitat de Barcelona, dated 2025) are described below.

The target in this assay is T1, human IL13Rα2 (interleukin-13 receptor subunit alpha-2) (human, UniProt Q14627 27-380).
T1 construct: whole, on cells; also called IL13Ra2
T1 sequence (looked up): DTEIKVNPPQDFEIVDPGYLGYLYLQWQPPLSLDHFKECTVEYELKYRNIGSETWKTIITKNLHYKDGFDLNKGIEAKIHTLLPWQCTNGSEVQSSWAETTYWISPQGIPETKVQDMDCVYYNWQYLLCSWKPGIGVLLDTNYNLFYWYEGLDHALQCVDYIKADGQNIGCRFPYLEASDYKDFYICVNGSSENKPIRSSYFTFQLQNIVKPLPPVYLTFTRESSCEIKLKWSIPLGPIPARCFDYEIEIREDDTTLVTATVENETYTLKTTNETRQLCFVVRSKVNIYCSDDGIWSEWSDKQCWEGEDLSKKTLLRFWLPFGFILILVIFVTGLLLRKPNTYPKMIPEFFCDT
Description: flow cytometry of hybridoma supernatants on IL13Rα2-transfected 300.19 cells; specificity further validated on IL13Rα2-transfected COS cells and U251 cells. For orientation: A flow cytometer gives signals particle by particle.

B1: 6A murine anti-IL13Rα2 monoclonal antibody (antibody, V domains shown)
VH: EVQLQQSGPELVKPGASVKISCKTSGYTFTEYTMHWVKQSHGKSLEWIGIINPNNGGTNYNQKFKGKATLTVDKSSSTAYMELRSLTSEDSAVYYCARPSATHYFDYWGQGTTLTVSS
VL: DIKMTQSPSSMYASLGERVTITCKASQDIKSYLSWFQQKPGKSPKTLIYRANRLVDGVPSRFSGSGSGQDYSLTISSLEYEDMGIYYCLQYDEFPLTFGAGTKLELK
notes: Tested as hybridoma supernatant; also called IL13Rα2_6A; clone 6A
As for B1, the binding result is reported as “binds”.

B2: 143A murine anti-IL13Rα2 monoclonal antibody (antibody, V domains shown)
VH: DVQLVESGGGLVQPGGSRKLSCAASGFTFSSFGMHWVRQAPEKGLEWVAYISSGSSTIYYADTVKGRFIISRDNPKNTLFLQMTSLRSEDTAMYYCARKYEGYAMDYWGQGTSVTVSS
VL: DIKMTQSPSSMYASLGERVTITCKASQDINSYLSWFQQKPGKSPKTLIYRANRLVDGVPSRFSGSGSGQDYSLTISSLEYEDMGIYSCLQYDEFPLTFGAGTKLELK
notes: Tested as hybridoma supernatant; also called IL13Rα2_143A; clone 143A
Take B2: the binding result was “binds”.

B3: 46A murine anti-IL13Rα2 monoclonal antibody (antibody, V domains shown)
VH: QVQLKQSGPGLVQPSQSLSITCTVSGFSITKYGVHWVRLSPGKGLEWLGVIWSGGSTDYNAAFISRLNISKDNSKSQVFFKMNSLQANDTAIYYCARDFGDTMDYWGQGTSVTVSS
VL: QIVLTQSPAIMSASLGERVTMTCTASSSVTSSYLHWYQQKPGSSPKLWIFSTSNLASGVPARFSGSGSGTSYSLTISSMEAEDAATYYCHQYHRSPLTFGAGTKLELK
notes: Tested as hybridoma supernatant; also called IL13Rα2_46A; clone 46A
B3: the binding result is given as “binds”.

B4: 82B murine anti-IL13Rα2 monoclonal antibody (antibody, V domains shown)
VH: QVQLKQSGPGLVQPSQSLSITCTVSGFSLTSYGVHWVRQSPGKGLEWLGVIWSGGSTDYNAAFISRLSISKDNSKSQVFFKMNSLQANDTAIYYCARDRYDAFDYWGQGTTLTVSS
VL: QIVLTQSPAIMSASLGERVTMTCTASSSVSSSYLHWYQQKPGSSPKLWIYSTSNLASGVPARFSGSGSGTSYSLTISSMEAEDAATYYCHQYHRSPLTFGAGTKLELK
notes: Tested as hybridoma supernatant; also called IL13Rα2_82B; clone 82B
Regarding B4, the binding result is recorded as “binds”.
